From US20240415888A1 (Memorial Sloan Kettering, published 2024)
Each block holds one binder with its values, some of them ahead of it.

Molecular target: T1, human Thyroid Stimulating Hormone Receptor (TSHR), expressed on transfected or transduced cells (human, UniProt P16473 21-764)
T1 construct: also called Hu-TSHR; human TSHR
Assay: flow cytometry on HEK-293T cells transfected with TSHR expression vectors
Method: Flow Cytometry. Flow cytometry was performed to assess specific binding of TSHR and HER2 bispecific antibodies or to quantify their membrane expression. […] For flow analysis cells were harvested using 0.02% EDTA in phosphate-buffered saline (PBS). […] After washing, cells were captured using a BD LSRFortessa (BD Biosciences). Cells stained with DAPI (1 μg/mL) were excluded. Cytometric analysis was performed using FlowJo (V10.6; FlowJo) to obtain median fluorescence intensity (MFI) or to quantify molecules per cell using QuantiBRITE PE reference beads (BD Biosciences).

binding result: binds
B1: M22/CD3 T-BsAb (anti-TSHR x anti-CD3 bispecific antibody, IgG-[L]-scFv 2+2 format) (bispecific antibody)
light: LTVLTQPPSVSGAPRQRVTISCSGNSSNIGNNAVNWYQQLPGKAPKLLIYYDDQLPSGVSDRFSGSRSGTSASLAIRGLQSEDEADYYCTSWDDSLDSQLFGGGTRLTVLGQPKAAPSVTLFPPSSEELQANKATLVCLISDFYPGAVTVAWKADSSPVKAGVETTTPSKQSNNKYAASSYLSLTPEQWKSHRSYSCQVTHEGSTVEKTVAPTECTSGGGGSGGGGSGGGGSQVQLVQSGGGVVQPGRSLRLSCKASGYTFTRYTMHWVRQAPGKCLEWIGYINPSRGYTNYNQKFKDRFTISRDNSKNTAFLQMDSLRPEDTGVYFCARYYDDHYSLDYWGQGTPVTVSSGGGGSGGGGSGGGGSGGGGSGGGGSGGGGSDIQMTQSPSSLSASVGDRVTITCSASSSVSYMNWYQQTPGKAPKRWIYDTSKLASGVPSRFSGSGSGTDYTFTISSLQPEDIATYYCQQWSSNPFTFGCGTKLQITR
heavy: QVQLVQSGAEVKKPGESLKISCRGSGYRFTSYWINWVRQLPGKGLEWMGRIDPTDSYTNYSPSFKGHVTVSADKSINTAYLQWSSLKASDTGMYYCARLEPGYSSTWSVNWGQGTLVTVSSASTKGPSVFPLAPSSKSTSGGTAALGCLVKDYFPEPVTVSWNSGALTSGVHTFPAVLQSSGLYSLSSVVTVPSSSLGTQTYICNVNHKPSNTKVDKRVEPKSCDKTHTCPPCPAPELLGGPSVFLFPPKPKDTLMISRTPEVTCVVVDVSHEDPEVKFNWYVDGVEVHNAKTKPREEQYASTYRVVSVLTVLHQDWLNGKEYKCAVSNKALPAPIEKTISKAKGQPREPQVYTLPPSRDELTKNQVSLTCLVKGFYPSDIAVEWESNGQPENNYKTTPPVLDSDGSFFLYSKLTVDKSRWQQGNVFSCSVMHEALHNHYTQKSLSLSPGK
notes: Expressed in Expi-CHO cells and purified on protein A; also called M22/CD3 BsAb; M22-TSHR/CD3

binding result: binds
B2: K1-70/CD3 T-BsAb (anti-TSHR x anti-CD3 bispecific antibody, IgG-[L]-scFv 2+2 format) (bispecific antibody)
light: QSVLTQPPSVSAAPGQKVTISCSGSSSDIGSNYVSWYQQFPGTAPKLLIYDNNKRPSAIPDRFSGSKSGTSATLGITGLQTGDEADYYCGTWDSRLGIAVFGGGTQLTVLGQPKAAPSVTLFPPSSEELQANKATLVCLISDFYPGAVTVAWKADSSPVKAGVETTTPSKQSNNKYAASSYLSLTPEQWKSHRSYSCQVTHEGSTVEKTVAPTECTSGGGGSGGGGSGGGGSQVQLVQSGGGVVQPGRSLRLSCKASGYTFTRYTMHWVRQAPGKCLEWIGYINPSRGYTNYNQKFKDRFTISRDNSKNTAFLQMDSLRPEDTGVYFCARYYDDHYSLDYWGQGTPVTVSSGGGGSGGGGSGGGGSGGGGSGGGGSGGGGSDIQMTQSPSSLSASVGDRVTITCSASSSVSYMNWYQQTPGKAPKRWIYDTSKLASGVPSRFSGSGSGTDYTFTISSLQPEDIATYYCQQWSSNPFTFGCGTKLQITR
heavy: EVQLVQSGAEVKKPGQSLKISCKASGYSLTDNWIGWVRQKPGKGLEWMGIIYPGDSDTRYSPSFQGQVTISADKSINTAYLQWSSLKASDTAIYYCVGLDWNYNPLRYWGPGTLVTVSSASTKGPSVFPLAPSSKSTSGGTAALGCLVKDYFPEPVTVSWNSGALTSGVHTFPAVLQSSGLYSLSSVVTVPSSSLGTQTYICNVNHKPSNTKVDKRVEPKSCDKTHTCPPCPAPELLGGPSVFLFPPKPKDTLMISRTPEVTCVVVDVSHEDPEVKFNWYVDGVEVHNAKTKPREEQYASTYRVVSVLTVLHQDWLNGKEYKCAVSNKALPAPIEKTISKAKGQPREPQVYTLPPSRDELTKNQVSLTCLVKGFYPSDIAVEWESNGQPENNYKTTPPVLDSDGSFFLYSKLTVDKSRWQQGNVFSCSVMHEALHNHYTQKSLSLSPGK
notes: also called K1-70/CD3 BsAb; K1-70-TSHR/CD3
